{"source": "paper PMC6807164", "about": "“The lipid transfer protein Saposin B does not directly bind CD1d for lipid antigen loading” (Wellcome Open Research, 2019)", "molecules": {"B1": {"name": "Saposin B, untagged, expressed in E. coli (unglycosylated) (natural protein, human, UniProt P07602 195-274, looked up)", "chain": "GDVCQDCIQMVTDIQTAVRTNSTFVQALVEHVKEECDRLGPGMADICKNYISQYSEIAIQMMMHMQPKEICALVGFCDEV", "notes": "Saposin B, the segment of human prosaposin (PSAP) residues 195-274, UniProt P07602; Cloned into pET-15b by NcoI and XhoI to give untagged protein; Co-purifies with E. coli lipid; also called SapB; ugSapB; source: E. coli Origami (DE3), purified (heat treatment, anion exchange, SEC)"}}, "key": {"[1]": {"molecular_target": "CD14 (Homo sapiens) (UniProt P08571)", "sequence (P08571 20-345)": "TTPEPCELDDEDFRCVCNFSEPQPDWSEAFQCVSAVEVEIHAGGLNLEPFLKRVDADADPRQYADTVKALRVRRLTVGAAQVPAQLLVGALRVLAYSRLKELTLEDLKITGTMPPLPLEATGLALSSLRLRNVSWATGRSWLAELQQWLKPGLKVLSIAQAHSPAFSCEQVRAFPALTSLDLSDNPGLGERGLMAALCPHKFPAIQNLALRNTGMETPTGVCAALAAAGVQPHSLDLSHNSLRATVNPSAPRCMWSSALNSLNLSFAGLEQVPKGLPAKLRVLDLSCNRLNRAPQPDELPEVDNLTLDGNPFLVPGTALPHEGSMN", "details": "cited from earlier work"}, "[2]": {"molecular_target": "Apolipoprotein B (Homo sapiens) (UniProt P04114)", "sequence (P04114 28-2179)": "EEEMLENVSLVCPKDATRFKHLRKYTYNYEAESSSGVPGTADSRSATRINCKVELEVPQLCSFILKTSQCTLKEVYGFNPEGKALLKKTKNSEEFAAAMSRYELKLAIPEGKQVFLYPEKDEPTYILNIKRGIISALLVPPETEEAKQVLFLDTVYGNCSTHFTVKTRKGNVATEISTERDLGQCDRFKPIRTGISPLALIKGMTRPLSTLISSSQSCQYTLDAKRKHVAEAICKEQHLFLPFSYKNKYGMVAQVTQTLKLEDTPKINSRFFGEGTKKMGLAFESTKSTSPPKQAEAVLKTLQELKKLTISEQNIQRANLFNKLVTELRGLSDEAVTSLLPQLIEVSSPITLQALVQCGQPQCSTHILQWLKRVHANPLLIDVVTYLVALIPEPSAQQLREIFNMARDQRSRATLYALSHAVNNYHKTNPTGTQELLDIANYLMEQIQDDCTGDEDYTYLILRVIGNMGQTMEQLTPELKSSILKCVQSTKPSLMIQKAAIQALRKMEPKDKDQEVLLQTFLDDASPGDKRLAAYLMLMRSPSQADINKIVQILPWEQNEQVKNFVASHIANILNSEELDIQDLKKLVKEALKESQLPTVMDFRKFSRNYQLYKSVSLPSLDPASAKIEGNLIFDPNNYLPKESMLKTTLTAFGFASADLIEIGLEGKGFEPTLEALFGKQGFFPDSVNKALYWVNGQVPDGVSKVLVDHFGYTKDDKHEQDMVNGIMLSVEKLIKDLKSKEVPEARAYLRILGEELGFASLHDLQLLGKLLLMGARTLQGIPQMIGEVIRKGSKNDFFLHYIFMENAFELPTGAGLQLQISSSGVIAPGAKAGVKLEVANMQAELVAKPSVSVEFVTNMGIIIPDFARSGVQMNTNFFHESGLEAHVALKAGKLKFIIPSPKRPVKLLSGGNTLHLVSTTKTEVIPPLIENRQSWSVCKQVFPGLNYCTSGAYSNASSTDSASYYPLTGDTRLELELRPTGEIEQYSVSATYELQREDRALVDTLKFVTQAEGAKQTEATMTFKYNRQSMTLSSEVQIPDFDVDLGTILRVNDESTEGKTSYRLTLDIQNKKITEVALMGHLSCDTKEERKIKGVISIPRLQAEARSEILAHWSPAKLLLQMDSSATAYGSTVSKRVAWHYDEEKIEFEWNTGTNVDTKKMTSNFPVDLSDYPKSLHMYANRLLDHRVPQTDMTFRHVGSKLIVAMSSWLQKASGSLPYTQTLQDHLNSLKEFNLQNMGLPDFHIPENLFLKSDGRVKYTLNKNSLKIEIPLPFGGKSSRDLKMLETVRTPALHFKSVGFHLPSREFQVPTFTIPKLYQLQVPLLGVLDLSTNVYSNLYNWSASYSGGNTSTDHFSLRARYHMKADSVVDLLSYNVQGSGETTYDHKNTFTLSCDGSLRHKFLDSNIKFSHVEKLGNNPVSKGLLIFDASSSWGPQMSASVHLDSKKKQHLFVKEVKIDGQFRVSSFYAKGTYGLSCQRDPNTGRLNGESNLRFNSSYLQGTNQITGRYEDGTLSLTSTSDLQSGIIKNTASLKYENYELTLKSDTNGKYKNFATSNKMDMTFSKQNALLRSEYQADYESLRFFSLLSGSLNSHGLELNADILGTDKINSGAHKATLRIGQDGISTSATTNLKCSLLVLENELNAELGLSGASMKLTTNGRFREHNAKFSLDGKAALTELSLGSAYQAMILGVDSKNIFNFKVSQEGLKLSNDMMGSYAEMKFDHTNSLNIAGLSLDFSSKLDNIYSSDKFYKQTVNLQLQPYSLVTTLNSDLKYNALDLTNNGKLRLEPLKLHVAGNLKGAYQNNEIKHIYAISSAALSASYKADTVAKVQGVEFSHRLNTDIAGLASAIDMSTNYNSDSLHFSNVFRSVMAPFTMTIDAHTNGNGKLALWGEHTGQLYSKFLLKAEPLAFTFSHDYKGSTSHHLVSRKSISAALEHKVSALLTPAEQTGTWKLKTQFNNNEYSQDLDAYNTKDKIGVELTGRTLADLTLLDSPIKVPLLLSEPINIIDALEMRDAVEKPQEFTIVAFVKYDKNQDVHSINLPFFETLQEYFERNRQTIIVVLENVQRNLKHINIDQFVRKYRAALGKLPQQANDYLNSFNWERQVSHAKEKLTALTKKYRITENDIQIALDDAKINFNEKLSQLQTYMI", "details": "cited from earlier work"}, "[3]": {"molecular_target": "T1, CD1d-β2m complex (glycosylated CD1d-H6 with untagged β2m) (human, UniProt P15813 20-301; P61769 21-119, glycosylated (N-linked glycans from expression in HEK293F))", "T1 construct": "CD1d, human, extracellular domain, residues 20-301 of UniProt P15813; expressed behind the vector's N-terminal secretion signal; β-2-microglobulin, human, residues 21-119 of UniProt P61769; untagged; Carries endogenous human lipids as purified; The results call β2m full-length, the methods give residues 21-119; also called CD1d-H 6-β 2m; gCD1d; not shown: His6, C-terminal, kept", "assay": "equilibrium binding assay (depletion of prey from the supernatant, no wash steps); CD1d-β2m on Ni-NTA agarose beads at 0-40 μM, SapB at 680 nM; 50 mM HEPES pH 7.0, 150 mM NaCl, 0.05% digitonin, 2.5 mM CaCl2, 2.5 mM MgCl2; 1 hour at room temperature; unbound SapB detected by SYPRO Ruby; both proteins with the endogenous lipids they co-purify with", "details": "both partners purified"}}}
{"molecule": "LPS binding protein (LBP) (from UniProt P18428)", "values": [{"measurement": "Kd", "setting": "[1]", "result": 5.52, "unit": "nM"}]}
{"molecule": "Microsomal Triglyceride Transfer protein (from UniProt P55157)", "values": [{"measurement": "Kd", "setting": "[2]", "result": 20, "unit": "nM"}]}
{"molecule": "B1", "values": [{"measurement": "Kd", "setting": "[3]", "result": "> 40000", "unit": "nM"}]}
